In article PMC6113430:

Assays:
[1] = biological target: human PD‐L1 (hPD‐L1), soluble, biotinylated (human) (UniProt Q9NZQ7); experiment: SPR
[2] = biological target: human PD‐L2 (hPD‐L2), soluble (human) (UniProt Q9BQ51); experiment: SPR
[3] = biological target: human PD‐L1 on the surface of tumor cells (human) (UniProt Q9NZQ7); experiment: flow cytometry on cells
[4] = biological target: human PD‐L2 on mature dendritic cells (human) (UniProt Q9BQ51); experiment: flow cytometry on cells

Row | Kd [1] [nM] | koff [1] [s⁻¹] | Kd [2] [nM] | T1/2 [2] [s] | koff [2] [s⁻¹] | EC50 [3] [nM] | percent reduction of the MFI of anti-PD-L2 Ab (M1H18) at 1.0 × 10^-5 mol/L L5B7 [4] [%] | T1/2 [1] [s] | Substance
1 | 0.687 | 0.002 | 13.7 | 78.1 | 0.0128 | 2.9 | > 40 | – | L5B7, high‐affinity PD‐1 variant (G124S, K131Y, A132I) (designed binder)
2 | 9.9 | – | – | – | – | – | – | – | hPD‐1 A132I point mutant (domain or fragment)

The next lines start with the substance.

Row | Substance | Kd [1] [nM] | koff [1] [s⁻¹] | Kd [2] [nM] | T1/2 [2] [s] | koff [2] [s⁻¹] | EC50 [3] [nM] | percent reduction of the MFI of anti-PD-L2 Ab (M1H18) at 1.0 × 10^-5 mol/L L5B7 [4] [%] | T1/2 [1] [s]
3 | soluble human PD‐1 (hPD‐1) (domain or fragment) | 2650 | – | 1050 | 2.68 | – | 4860 | – | –
4 | hPD‐1 with the combined mutation of G124V and A132I (domain or fragment) | 0.97 | – | – | – | – | – | – | –
5 | L4C11, PD‐1 variant with a single‐site mutation from glycine to valine (G124V) (designed binder) | 93.7 | 0.121 | – | – | – | – | – | 8.25
